Publication PMC4771647, “Improving the thermostability and stress tolerance of an archaeon hyperthermophilic superoxide dismutase by fusion with a unique N-terminal domain” (SpringerPlus, 2016)
Values joined by “and” are separate entries in the source; they are usually repeats but may differ in a detail not shown here. Equal values may be shown once. One block for each molecule: values may come before it.

How the values were obtained:
[1] = molecular target: rSODSs, fusion of the N-terminal domain (NTD) of SOD NG2215 of Geobacillus thermodenitrificans NG80-2 with SODSs (Geobacillus thermodenitrificans NG80-2 | Sulfolobus solfataricus); test: AUC; sedimentation velocity, interference data, 36,000 rpm, An-60 Ti rotor, 4 °C; 50 mM potassium phosphate buffer plus 150 mM NaCl, pH 8.0; continuous c(s) distribution (SEDFIT)
[2] = molecular target: the molecule itself; test: as above

stoichiometry N [1]: 4 and 2
Molecule: rSODSs, fusion of the N-terminal domain (NTD) of SOD NG2215 of Geobacillus thermodenitrificans NG80-2 with SODSs (enzyme)

B1: superoxide dismutase from the archaeon Sulfolobus solfataricus (SODSs) (enzyme, UniProt P80857 1-211, looked up)
chain: MTLQIQFKKYELPPLPYKIDALEPYISKDIIDVHYNGHHKGYVNGANSLLERLEKVVKGDLQTGQYDIQGIIRGLTFNINGHKLHALYWENMAPSGKGGGKPGGALADLINKQYGSFDRFKQVFTETANSLPGTGWAVLYYDTESGNLQIMTFENHFQNHIAEIPIILILDEFEHAYYLQYKNKRADYVNAWWNVVNWDAAEKKLQKYLTK
notes: Fe superoxide dismutase (SODSs) of Sulfolobus solfataricus; gene synthesised into pET-28a (pET-SODSs); expected size 24.2 kDa; Tetramer by analytical ultracentrifugation (major peak), with small quantities of dimers; also called Fe-SODSs; native SODSs
stoichiometry N [2]: 4 and 2
